Assay [1] has as its target T1, Human LAG-3 on cells (human LAG-3 expressing EL4 cells; activated human CD3+ T cells) (human, UniProt P18627 23-525).
T1 construct: whole, on cells; also called LAG-3 positive T cells
T1 sequence (looked up): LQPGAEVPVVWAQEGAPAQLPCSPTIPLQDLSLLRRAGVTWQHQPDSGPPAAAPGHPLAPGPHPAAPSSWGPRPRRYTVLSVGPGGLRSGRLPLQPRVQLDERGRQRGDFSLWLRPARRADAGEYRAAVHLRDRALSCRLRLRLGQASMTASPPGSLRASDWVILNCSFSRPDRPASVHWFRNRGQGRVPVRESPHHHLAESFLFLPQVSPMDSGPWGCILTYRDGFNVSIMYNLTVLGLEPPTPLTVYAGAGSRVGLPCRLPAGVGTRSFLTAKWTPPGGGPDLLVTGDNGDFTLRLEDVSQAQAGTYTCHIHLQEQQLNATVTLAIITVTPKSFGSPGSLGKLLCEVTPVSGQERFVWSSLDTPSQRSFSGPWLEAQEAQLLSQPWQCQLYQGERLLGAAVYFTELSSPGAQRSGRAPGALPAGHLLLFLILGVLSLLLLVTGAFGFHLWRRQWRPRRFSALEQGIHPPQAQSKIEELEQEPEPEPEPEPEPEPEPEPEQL
The assay can be described thus: flow cytometry (MFI), Alexa647-conjugated antibody titrated on activated human CD3+ T cells; direct binding curve, half-maximal value labelled IC50 in the table under the graph; unit taken from the concentration axis. The procedure: CD3⁺ T cells were prepared from PBMCs by negative selection using Untouched Human T cell Dynal beads. CD3⁺ T cells were activated by incubation with immobilised anti-CD3 and anti-CD28 and soluble recombinant human IL-12 for 3 days at 37° C. Activated cells were incubated with Alexa 647-conjugated antibodies of varying concentrations up to 3 μg/ml for 30 minutes at room temperature. Cells were washed with FACS buffer (PBS+0.5% BSA).
EL4 cells and CD3⁺ T cells were analysed by FACS using a Beckman Coulter FC 500 flow cytometer. FACS raw data were analysed using CXP Analysis software (Beckman Coulter). The data was initially plotted on a forward-scatter versus side-scatter plot and the population of cells of interest were gated. This gated population was then plotted as a histogram displaying fluorescence intensity and the mean fluorescence intensity (MFI) calculated. MFI values were then plotted in GraphPad Prism 5 software to generate dose response curves.
Background: Flow cytometry measures light scatter and fluorescence of single cells or particles in a stream.

Assay [2] concerns the target T2, Recombinant cynomolgus macaque LAG-3 ECD-His6 (cynomolgus macaque, UniProt P18627 24-433 (human entry)).
T2 construct: In-house generated; also called cyno LAG-3
T2 chain: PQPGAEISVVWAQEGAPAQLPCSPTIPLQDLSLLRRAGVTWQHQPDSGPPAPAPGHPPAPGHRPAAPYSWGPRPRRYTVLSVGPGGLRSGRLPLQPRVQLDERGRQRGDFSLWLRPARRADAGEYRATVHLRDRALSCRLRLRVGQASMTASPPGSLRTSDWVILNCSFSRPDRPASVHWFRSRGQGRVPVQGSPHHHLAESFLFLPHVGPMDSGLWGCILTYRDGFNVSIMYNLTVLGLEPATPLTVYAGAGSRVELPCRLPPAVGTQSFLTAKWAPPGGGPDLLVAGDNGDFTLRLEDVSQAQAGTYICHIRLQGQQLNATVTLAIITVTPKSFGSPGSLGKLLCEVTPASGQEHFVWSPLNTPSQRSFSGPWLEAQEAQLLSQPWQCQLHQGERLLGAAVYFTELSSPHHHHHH
The assay is described as follows: SPR Biacore T100, antibody captured on Protein A, LAG-3 ECD-His6 analyte 0.0625-16 nM, 1:1 model, 37 C. The procedure: (§1) The binding cross reactivity of anti-LAG-3 humanised antibodies for both cynomolgus macaque (cyno) and baboon recombinant LAG-3 ECD-His6 (SEQ ID NOs 52 and 53, respectively) was assessed using the Biacore™ T100 (GE Healthcare).
(§2) Protein A was immobilised on a CM5 chip by primary amine coupling. This surface was then used to capture the humanised antibodies. In-house generated recombinant cynomolgus macaque and baboon LAG-3 ECD-His6 were then passed over the captured antibodies and regeneration was carried out using 50 mM NaOH. LAG-3 ECD-His6 was passed over at 16, 4, 1, 0.25 and 0.0625 nM. The binding curves were double referenced with buffer injection (i.e. 0 nM) and the data was fitted to the T100 analysis software using the 1:1 model. The run was carried out at 37° C. using HBS-EP as the running buffer.
For orientation: SPR reads the build-up and loss of mass on a sensor chip optically.

Assay [3] addresses T3, Recombinant baboon LAG-3 ECD-His6 (baboon, UniProt P18627 24-433 (human entry)).
T3 construct: In-house generated
T3 chain: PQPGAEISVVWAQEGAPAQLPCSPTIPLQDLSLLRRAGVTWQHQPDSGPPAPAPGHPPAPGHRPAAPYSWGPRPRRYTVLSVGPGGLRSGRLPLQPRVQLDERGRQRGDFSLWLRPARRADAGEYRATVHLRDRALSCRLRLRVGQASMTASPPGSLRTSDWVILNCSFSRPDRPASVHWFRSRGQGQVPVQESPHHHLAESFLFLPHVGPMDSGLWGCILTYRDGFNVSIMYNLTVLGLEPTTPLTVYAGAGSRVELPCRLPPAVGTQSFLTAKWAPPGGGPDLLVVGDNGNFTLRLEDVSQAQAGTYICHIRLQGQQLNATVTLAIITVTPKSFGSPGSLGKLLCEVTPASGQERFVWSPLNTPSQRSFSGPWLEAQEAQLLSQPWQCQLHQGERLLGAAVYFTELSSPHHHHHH
The assay is described as above. The procedure: as §1, §2

B1: IMP731 (antibody, human IgG1, kappa)
heavy: not shown
light: DIVMTQSPSSLAVSVGQKVTMSCKSSQSLLNGSNQKNYLAWYQQKPGQSPKLLVYFASTRDSGVPDRFIGSGSGTDFTLTISSVQAEDLADYFCLQHFGTPPTFGGGTKLEIKRTVAAPSVFIFPPSDEQLKSGTASVVCLLNNFYPREAKVQWKVDNALQSGNSQESVTEQDSKDSTYSLSSTLTLSKADYEKHKVYACEVTHQGLSSPVTKSFNRGEC
notes: Chimeric (murine variable domains, human IgG1/kappa constant regions); also called A9H12; chimeric antibody IMP731
Molecule B1 had an IC50 in assay [1] of 2.14 ng/mL. Also, the values for the Kd in assay [2] and in assay [3] were 21 pM and 19 pM, respectively.

B2: H5L7BW (antibody, human IgG1, kappa)
heavy: not shown
light: DIQMTQSPSSLSASVGDRVTITCKSSQSLLNPSNQKNYLAWYQQKPGKAPKLLVYFASTRDSGVPSRFSGSGSGTDFTLTISSLQPEDFATYYCLQHFGTPPTFGQGTKLEIKRTVAAPSVFIFPPSDEQLKSGTASVVCLLNNFYPREAKVQWKVDNALQSGNSQESVTEQDSKDSTYSLSSTLTLSKADYEKHKVYACEVTHQGLSSPVTKSFNRGEC
modifications: afucosylated: no fucose on the core carbohydrate structure attached to Asn297
notes: Same plasmids as H5L7, expressed in the BioWa POTELLIGENT (FUT8 knock-out CHO) cell line; also called afucosylated antibody H5L7BW; afucosylated H5L7
In the case of B2, the IC50 in assay [1] turned out to be 3.07 ng/mL. Also, the Kd amounted to 21 pM in assay [2] and 24 pM in assay [3].

B3: H5L7 (antibody, human IgG1, kappa)
heavy: not shown
light: DIQMTQSPSSLSASVGDRVTITCKSSQSLLNPSNQKNYLAWYQQKPGKAPKLLVYFASTRDSGVPSRFSGSGSGTDFTLTISSLQPEDFATYYCLQHFGTPPTFGQGTKLEIKRTVAAPSVFIFPPSDEQLKSGTASVVCLLNNFYPREAKVQWKVDNALQSGNSQESVTEQDSKDSTYSLSSTLTLSKADYEKHKVYACEVTHQGLSSPVTKSFNRGEC
notes: Humanised IgG1/kappa of A9H12 (IMP731); also called fucosylated H5L7; non-ADCC enhanced variant H5L7
In the case of B3, the IC50 in assay [1] was 3.06 ng/mL. Besides, the Kd was determined as 17 pM in assay [2] and 22 pM in assay [3].

Broadly, the IC50 is the concentration needed to halve the response being measured. A high value points to lower potency. Usually Kd stands for a measure of binding affinity in units of concentration.

The values are drawn from patent US20160017037A1 (GlaxoSmithKline, published 2016).
